Test results: patent publication US20120238509A1
No end group written: not given here. *: point of attachment. Acm = CC(=O)NC*

B1: hUcn 2 prohormone (peptide)
peptide: IPTFQLRPQNSPQTTPRPAASESPSAAPTWPWAAQSHCSPTRHPGSRIVLSLDVPIGLLQILLEQARARAAREQATTNARILARV
modifications: here or on the partner: amidated at the C-terminus
B2: mUcn 2 prohormone (peptide)
peptide: TPIPTFQLLPQNSLETTPSSVTSESSSGTTTGPSASWSNSKASPYLDTRVILSLDVPIGLLRILLEQARYKAARNQAATNAQILAHV
modifications: here or on the partner: amidated at the C-terminus
B3: [Cys^1, 51(Acm)]-hUcn2(1-51)-OH) (peptide)
peptide: C(Acm)SPTRHPGSRIVLSLDVPIGLLQILLEQARARAAREQATTNARILARVGHC(Acm)-OH

Target: CRFR^2 expressed by A7r5 cells, P47866
Sequence (P47866 20-411): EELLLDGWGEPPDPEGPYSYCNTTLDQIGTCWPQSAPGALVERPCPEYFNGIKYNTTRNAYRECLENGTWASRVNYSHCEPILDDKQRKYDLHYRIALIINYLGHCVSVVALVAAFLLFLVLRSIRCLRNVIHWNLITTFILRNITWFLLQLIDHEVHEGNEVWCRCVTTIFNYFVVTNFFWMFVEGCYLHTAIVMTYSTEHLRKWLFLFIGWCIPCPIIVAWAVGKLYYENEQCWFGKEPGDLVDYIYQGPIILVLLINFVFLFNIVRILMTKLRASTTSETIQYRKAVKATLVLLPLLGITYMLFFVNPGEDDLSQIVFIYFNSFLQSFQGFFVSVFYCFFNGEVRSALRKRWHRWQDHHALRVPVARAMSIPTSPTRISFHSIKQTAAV
Assay: cell-based or functional assay

| Binder | cAMP A7r5 (EC50, nM) |
| --- | --- |
| IVLSLDVPIGLLQILLEQARARAAREQATTNARILARV-NH2 [hUcn 2] | 0.11 nM |
| IVLSLDVPIGLLQILLEQARARAAREQATTNARILARV-OH [hUcn 2-OH] | 90.4 nM |
| RVILSLDVPIGLLRILLEQARYKAARNQAATNAQILAHV-NH2 [R^0-mUcn 2] | 0.05 nM |
| VILSLDVPIGLLRILLEQARYKAARNQAATNAQILAHV-NH2 [mUcn 2] | 0.07 nM |
| IVLSLDVPIGLLQILLEQARARAAREQATTNARILARVGH-OH [hUcn 2-GH-OH] | 2.9 nM |
| RIVLSLDVPIGLLQILLEQARARAAREQATTNARILARV-NH2 [R^0-hUcn 2] | 0.027 nM |
| B1 | 2.3 nM |
| IVLSLDVPIGLLQILLEQARARAAREQATTNARILARVGHC-OH [hUcn 2-GHC-OH] | 13.9 nM |
| IVLSLDVPIGLLQILLEQARARAAREQATTNARILARVG-OH [hUcn 2-G-OH] | 6.3 nM |
| B2 | 0.53 nM |
| B3 | 9.5 nM |
| HPGSRIVLSLDVPIGLLQILLEQARARAAREQATTNARILARV-NH2 [SRP (HPGSR-hUcn 2)] | 0.09 nM |
